Measured values as given in publication PMC12631311, “Molecular Insights into IAHSP: Influence of the R1611W Mutation on the VPS9 Domain of Alsin” (ACS Omega, 2025).
Numbering of substitutions follows the chain as printed. Names and notes keep the numbering of the source. Values joined by “and” are separate entries in the source; they are usually repeats but may differ in a detail not shown here. Equal values may be shown once.

Target: the molecule itself
Test: SEC; Superdex 200 Increase 10/300 GL, 50 mM potassium phosphate pH 8.0, 150 mM NaCl, 0.5 mL/min, room temperature; 310 ug VPS9 WT or 270 ug VPS9 R1611W injected; apparent molecular weights from column calibration

B1: human alsin VPS9 WT (C1551S/C1558S/C1647S) (domain or fragment, UniProt Q96Q42 1513-1657, looked up)
chain: KQPDIALLGFLGVQRKFWPATLSILGESKKVLPTTKDASFASAVESLQQISTTFTPSDKLKVIQQTFEEISQSVLASLHEDFLWSMDDLFPVFLYVVLRARIRNLGSEVHLIEDLMDPYLQHGEQGIMFTTLKASYYQIQREKLN
notes: alsin, human, VPS9 domain, residues 1513-1657 of UniProt Q96Q42, with three Cys to Ser changes in the construct called WT; Cloned in pET28b between NdeI and EcoRI; No cleavage of the tag is described; The N-terminal position is read from the forward primer (thrombin site before the ATG); The printed monomer mass of 16.6 kDa fits the domain without the tag; also called wild-type VPS9 domain
stoichiometry N: 4

B2: human alsin VPS9 R1611W mutant (domain or fragment, UniProt Q96Q42 1513-1657, looked up)
chain: B1 chain with R99W
notes: alsin, human, VPS9 domain, residues 1513-1657 of UniProt Q96Q42; The pathological R1611W mutation was inserted by site-directed mutagenesis into the VPS9 WT (C1551S/C1558S/C1647S) construct; Same construct and tag as m1 with R1611W added; also called VPS R1611W
stoichiometry N: 4 and 6
